PMC13354579

Columns and labels:
K48-linked triubiquitin = K48-linked triubiquitin (UniProt P0CG48); assay: ITC; MicroCal PEAQ-ITC, 25 °C, 50 mM Tris-HCl pH 7.5, 150 mM NaCl, 250 µM TCEP; DUB in the syringe titrated into K48-linked polyUb in the cell, in other experiments the scarcest species in the cell; n = 2, mean ± SD
[1] = target: full-length MINDY3 (human) (UniProt Q9H8M7); assay: as above
Chain of full-length MINDY3 (human) (Q9H8M7 whole entry): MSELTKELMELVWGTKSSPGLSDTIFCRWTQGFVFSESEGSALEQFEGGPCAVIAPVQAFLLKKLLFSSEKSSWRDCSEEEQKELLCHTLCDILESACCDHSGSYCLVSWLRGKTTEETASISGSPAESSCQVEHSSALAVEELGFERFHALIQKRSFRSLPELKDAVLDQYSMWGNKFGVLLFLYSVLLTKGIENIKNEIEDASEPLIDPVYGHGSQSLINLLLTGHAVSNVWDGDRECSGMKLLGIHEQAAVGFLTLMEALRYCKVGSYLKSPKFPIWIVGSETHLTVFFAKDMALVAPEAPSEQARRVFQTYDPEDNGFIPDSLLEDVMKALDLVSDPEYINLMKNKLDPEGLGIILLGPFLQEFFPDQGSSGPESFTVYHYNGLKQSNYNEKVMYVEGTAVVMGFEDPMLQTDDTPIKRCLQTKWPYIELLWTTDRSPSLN

Kd (K48-linked triubiquitin) [µM] | Kd [1] [µM] | dH [1] [kcal/mol] | Substance
6 |  |  | MINDY3^EF-hand (from UniProt Q9H8M7 297-370) (domain or fragment)
 | 12.2 | -1.16 | full-length RAD23A (from UniProt P54725 1-363) (natural protein)
